{"source": "patent US20250092124A1", "key": {"[1]": {"molecular_target": "GDF15-mFC protein (human; mouse) (UniProt Q99988)", "sequence (Q99988 197-308)": "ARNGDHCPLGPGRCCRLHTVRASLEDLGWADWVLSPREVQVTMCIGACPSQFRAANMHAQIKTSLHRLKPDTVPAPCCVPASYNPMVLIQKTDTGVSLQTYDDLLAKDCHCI", "experiment": "blocking ELISA as in Example 4, GFRAL-hIgG1 Fc coated (competitor), GDF15-mFC mixed with antibody"}, "[2]": {"molecular_target": "GDF15-HIS (ACROBiosystems, CAT #: GD5-H5149) (human) (UniProt Q99988)", "sequence (Q99988 197-308 limits assumed)": "as the sequence (Q99988 197-308) above", "experiment": "ELISA, GDF15-HIS coated"}, "[3]": {"molecular_target": "GDF15-HIS (ACROBiosystems, CAT #: GD5-H5149) (human) (UniProt Q99988)", "experiment": "BLI (ForteBio Octet), antibody immobilised, GDF15 200-6.25 nM"}, "[4]": {"molecular_target": "GDF15-mFC protein (human; mouse) (UniProt Q99988)", "experiment": "competitive ELISA, GFRAL-HIS coated (competitor), GDF15-mFc 0.3 µg/ml pre-incubated with antibody"}, "[5]": {"molecular_target": "GDF15-HIS (ACROBiosystems, CAT #: GD5-H5149) (human) (UniProt Q99988)"}, "[6]": {"molecular_target": "GDF15-HIS (ACROBiosystems, CAT #: GD5-H5149) (human) (UniProt Q99988)", "experiment": "cell-based or functional assay"}}, "data": [{"binder": "Ponsegromab (antibody, INN chains, looked up, V domains shown) VH: QVQLVQSGAEVKKPGSSVKVSCKASGYTFSSYNIDWVRQAPGQGLEWMGGINPIFGTAFYNQKFQGRVTITADESTSTAYMELSSLRSEDTAVYYCAREAITTVGAMDHWGQGTLVTVSS VL: EIVLTQSPATLSLSPGERATLSCRTSQSVHNYLAWYQQKPGQAPRLLIYDASTRADGIPARFSGSGSGTDFTLTISSLEPEDFAVYYCQQFWSWPWTFGQGTKVEIK", "values": [{"measurement": "IC50", "setting": "[1]", "value": 0.504, "unit": "µg/mL"}, {"measurement": "OD450.Max", "setting": "[1]", "value": 1.02, "unit": "OD450"}, {"measurement": "EC50", "setting": "[2]", "value": 0.096, "unit": "µg/mL"}, {"measurement": "OD450.Max", "setting": "[2]", "value": 1.1, "unit": "OD450"}, {"measurement": "Kd", "setting": "[3]", "value": "< 1", "unit": "pM"}, {"measurement": "koff", "setting": "[3]", "value": "< 1e-07", "unit": "s⁻¹"}, {"measurement": "kon", "setting": "[3]", "value": 711000, "unit": "M⁻¹ s⁻¹"}, {"measurement": "IC50", "setting": "[4]", "value": 0.504, "unit": "µg/mL"}, {"measurement": "OD450.Max", "setting": "[4]", "value": 1.02, "unit": "OD450"}, {"measurement": "EC50 (read off the curve) of GDF15-His for luciferase induction with 0.1 µg/ml antibody present", "setting": "[5]", "value": 0.01, "unit": "µg/mL"}, {"measurement": "Bottom (luciferase activity fold, fitted curve), HEK293 SRE-LUC2-cRET-GFRAL reporter cells", "setting": "[6]", "value": 1.07}, {"measurement": "IC50, luciferase in HEK293 SRE-LUC2-cRET-GFRAL reporter cells stimulated with GDF15-His 5 ng/ml", "setting": "[6]", "value": 0.0321, "unit": "µg/mL"}]}]}
